Data: patent publication US20060105320A1

Target: NM fibers (amyloid fibers of NM; also used sonicated as seed) (Saccharomyces cerevisiae) (UniProt P05453)
Assay: seeded fiber elongation, sedimentation and acrylodan wavelength shift assays, Lineweaver-Burk plot

NM fibers (amyloid fibers of NM; also used sonicated as seed) (Saccharomyces cerevisiae), sequence (P05453 1-253): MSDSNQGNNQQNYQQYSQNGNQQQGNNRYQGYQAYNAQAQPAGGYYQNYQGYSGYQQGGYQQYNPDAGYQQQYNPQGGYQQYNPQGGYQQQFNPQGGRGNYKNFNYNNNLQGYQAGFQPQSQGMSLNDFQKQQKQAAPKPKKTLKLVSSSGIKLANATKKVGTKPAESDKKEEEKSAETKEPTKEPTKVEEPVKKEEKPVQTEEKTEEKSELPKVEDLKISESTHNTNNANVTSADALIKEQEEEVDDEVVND

In the case of “NM^T158C-acrylodan (soluble) (from UniProt P05453 1-253) (other; other documents disagree on this pair)”, the Km is reported as 0.12 µM and the kconf/Km (conformational conversion efficiency) is reported as 42000 M⁻¹ s⁻¹.
